The values that follow come from US5756454.

In test [1] the target is collagen receptor on human platelets (human).
Test [2] concerns the target thrombin.
Test [3] has as its target collagen receptor on human platelets (human). This is another data set of the same source.
Test [4] has as its target collagen receptor (VL A 2) on MTLn3 cells (rat mammary tumor cells) (rat).
The target in test [5] is collagen receptor on human platelets (human). The source holds these as a separate data set.
Test [6] deals with collagen receptor (VL A 2) on MTLn3 cells (rat mammary tumor cells) (rat). The source holds these as a separate data set.
In test [7] the target is collagen receptor on human platelets (human). This is another data set of the same source.

“collagen-induced platelet aggregation inhibitor isolated from saliva of Triatoma pallidipennis”: the released ATP, % of total ATP content, of collagen-treated platelets (30 µl = 10 µg protein of "Superose"-pool; 49% without inhibitor) (% of total ATP content) in test [1] stood at 2. In test [2], this substance yielded a maximal aggregation of filtrated platelets induced with thrombin (0.06 U/ml), with 200 µl "Superose"-pool (control 75%) (% maximal aggregation) of 75. The same substance showed an adherent platelets per mm^2 on collagen type I (50 µl of "Superose"-pool at 0.5 mg protein/ml; 13500 without inhibitor) (adherent platelets per mm^2) in test [3] of 6500. The cell attachment (cpm) of 51Cr-labelled MTLn3 cells to collagen type III (10 µl of "Superose"-pool; 2215 cpm without inhibitor) in test [4] was 1080 cpm. Further, in test [5], the IC50 of inhibition of collagen-induced platelet aggregation (highly purified protein) amounted to 50 nM and the IC50 of inhibition of collagen-induced platelet aggregation (partially purified "Superose"-pool) was found to be 2.5 µg per ml. The IC50 of adhesion-inhibition of metastatic tumor cells to collagen (highly purified protein) in test [6] amounted to 100 nM. The substance also registered an inhibition of collagen-induced aggregation of human platelets (platelet-rich plasma, aggregometer; "Superose"-pool) (% inhibition of aggregation) in test [7] of 70.
